Measured values from patent US20120142597A1 (GEORGIA TECH RESEARCH, published 2012).

B1: monobiotinylated recombinant fibronectin fragment FNIII7-10 (ligand)
chain: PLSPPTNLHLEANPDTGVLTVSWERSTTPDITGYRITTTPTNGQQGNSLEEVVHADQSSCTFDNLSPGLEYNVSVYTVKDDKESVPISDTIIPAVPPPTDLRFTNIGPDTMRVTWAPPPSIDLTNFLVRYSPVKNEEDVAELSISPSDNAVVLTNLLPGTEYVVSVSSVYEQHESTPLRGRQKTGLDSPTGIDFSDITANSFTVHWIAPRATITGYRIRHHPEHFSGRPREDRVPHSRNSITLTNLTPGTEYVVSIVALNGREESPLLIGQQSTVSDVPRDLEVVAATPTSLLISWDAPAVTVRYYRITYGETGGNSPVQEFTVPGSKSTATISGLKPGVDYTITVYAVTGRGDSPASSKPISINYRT
modifications: single biotin on the N-terminal biotin tagging sequence (monobiotinylated)

Tests used:
[1] = target: αvβ3 integrin on MC3T3-E1 murine osteoblast-like cells (mouse, UniProt P43406 31-1044; O54890 26-787); test: cell-based or functional assay
[2] = target: T1, α5β1 integrin on MC3T3-E1 murine osteoblast-like cells (mouse, UniProt P11688 45-1053; P09055 21-798); test: antibody blocking of adhesion, MC3T3-E1 cells on tethered ligand
T1 construct: whole, on cells; also called alpha5beta1
T1 sequence (P11688 45-1053, chain 1 of 2): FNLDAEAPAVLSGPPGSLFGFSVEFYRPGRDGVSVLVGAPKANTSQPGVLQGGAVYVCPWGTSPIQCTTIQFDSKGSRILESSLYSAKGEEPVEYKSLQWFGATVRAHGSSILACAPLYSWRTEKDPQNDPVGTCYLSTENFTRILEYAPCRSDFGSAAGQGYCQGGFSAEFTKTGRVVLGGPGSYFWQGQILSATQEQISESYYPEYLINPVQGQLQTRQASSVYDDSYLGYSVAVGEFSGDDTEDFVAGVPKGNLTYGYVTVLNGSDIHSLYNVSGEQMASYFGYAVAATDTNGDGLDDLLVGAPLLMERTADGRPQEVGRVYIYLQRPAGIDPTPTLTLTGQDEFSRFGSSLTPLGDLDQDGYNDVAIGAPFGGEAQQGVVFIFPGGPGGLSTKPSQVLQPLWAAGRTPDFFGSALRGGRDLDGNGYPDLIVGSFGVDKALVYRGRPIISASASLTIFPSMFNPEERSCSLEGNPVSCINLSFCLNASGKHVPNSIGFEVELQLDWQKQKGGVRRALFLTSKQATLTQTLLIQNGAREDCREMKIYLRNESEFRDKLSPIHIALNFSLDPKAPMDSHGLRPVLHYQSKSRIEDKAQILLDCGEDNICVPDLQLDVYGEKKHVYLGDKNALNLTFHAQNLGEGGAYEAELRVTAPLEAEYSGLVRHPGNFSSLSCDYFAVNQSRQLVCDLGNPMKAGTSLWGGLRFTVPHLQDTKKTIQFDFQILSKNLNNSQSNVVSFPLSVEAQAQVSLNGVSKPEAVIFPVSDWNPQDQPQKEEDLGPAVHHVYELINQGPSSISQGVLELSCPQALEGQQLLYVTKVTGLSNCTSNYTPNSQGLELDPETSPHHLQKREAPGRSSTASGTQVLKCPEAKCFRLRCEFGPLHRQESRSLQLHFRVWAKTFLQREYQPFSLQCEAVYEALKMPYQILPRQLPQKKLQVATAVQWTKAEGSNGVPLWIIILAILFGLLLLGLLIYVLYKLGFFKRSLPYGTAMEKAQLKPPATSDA
T1 sequence (P09055 21-798, chain 2 of 2): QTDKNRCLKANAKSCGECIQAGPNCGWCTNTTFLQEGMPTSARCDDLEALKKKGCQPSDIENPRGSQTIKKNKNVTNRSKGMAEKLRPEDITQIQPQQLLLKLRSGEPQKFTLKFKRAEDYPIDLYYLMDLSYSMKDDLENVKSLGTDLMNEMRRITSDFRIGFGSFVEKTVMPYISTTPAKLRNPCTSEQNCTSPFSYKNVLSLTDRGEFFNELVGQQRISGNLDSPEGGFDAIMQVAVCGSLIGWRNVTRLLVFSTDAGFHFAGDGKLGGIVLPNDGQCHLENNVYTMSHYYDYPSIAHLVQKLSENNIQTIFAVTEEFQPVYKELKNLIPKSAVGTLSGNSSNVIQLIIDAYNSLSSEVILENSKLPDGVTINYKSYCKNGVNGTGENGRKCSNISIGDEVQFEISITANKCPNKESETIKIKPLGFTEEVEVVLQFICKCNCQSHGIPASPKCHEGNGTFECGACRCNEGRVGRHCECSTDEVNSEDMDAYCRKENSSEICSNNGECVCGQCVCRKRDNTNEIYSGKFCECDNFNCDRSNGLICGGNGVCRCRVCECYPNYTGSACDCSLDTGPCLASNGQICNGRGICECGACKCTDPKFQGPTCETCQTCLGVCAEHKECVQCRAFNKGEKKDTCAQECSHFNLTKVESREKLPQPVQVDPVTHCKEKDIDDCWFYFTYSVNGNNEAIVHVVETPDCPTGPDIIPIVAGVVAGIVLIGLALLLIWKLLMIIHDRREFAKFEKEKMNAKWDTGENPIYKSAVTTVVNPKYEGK
Method: MC3T3-E1 cells were labeled with 4 mM calcein-AM, a membrane-permeable green fluorescent dye, in 2 mM dextrose-DPBS for 30 min and resuspended in α-MEM with 10% FBS. Cells were seeded onto the surfaces at 200 cells/mm², and allowed to attach for 1 h at 37° C. For blocking antibody experiments, cells were incubated in the presence of function-perturbing antibodies (10 μg/ml) for 10 min with gentle agitation prior to cell seeding. […] Wells were then filled completely with dextrose-PBS, sealed, inverted, and centrifuged for 5 min at a prescribed speed on a Beckman Allegra 6 centrifuge (GH 3.8 rotor) to apply normal detachment forces. Media was then gently aspirated from the wells, and wells were refilled for post-spin image collection. Post/pre-spin cell ratios were determined by image analysis, and this adhesive fraction was plotted against ligand surface density to obtain cell adhesion profiles.
Function-perturbing antibodies directed against different integrin subunits were used to block adhesion to the engineered interfaces. Since integrins α₅β₁ and αᵥβ₃ represent the dominant adhesion receptors for FN in MC3T3-E1 cells, the contributions of these receptors to adhesion strength on the peptide-functionalized SAMs was examined. Surfaces were tethered with maximum density of ligand, and the relative cell adhesion was normalized to unblocked controls.

[3] = target: T1, α5β1 integrin on MC3T3-E1 murine …; test: cell-based or functional assay

Chain of αvβ3 integrin on MC3T3-E1 murine osteoblast-like cells (P43406 31-1044, chain 1 of 2): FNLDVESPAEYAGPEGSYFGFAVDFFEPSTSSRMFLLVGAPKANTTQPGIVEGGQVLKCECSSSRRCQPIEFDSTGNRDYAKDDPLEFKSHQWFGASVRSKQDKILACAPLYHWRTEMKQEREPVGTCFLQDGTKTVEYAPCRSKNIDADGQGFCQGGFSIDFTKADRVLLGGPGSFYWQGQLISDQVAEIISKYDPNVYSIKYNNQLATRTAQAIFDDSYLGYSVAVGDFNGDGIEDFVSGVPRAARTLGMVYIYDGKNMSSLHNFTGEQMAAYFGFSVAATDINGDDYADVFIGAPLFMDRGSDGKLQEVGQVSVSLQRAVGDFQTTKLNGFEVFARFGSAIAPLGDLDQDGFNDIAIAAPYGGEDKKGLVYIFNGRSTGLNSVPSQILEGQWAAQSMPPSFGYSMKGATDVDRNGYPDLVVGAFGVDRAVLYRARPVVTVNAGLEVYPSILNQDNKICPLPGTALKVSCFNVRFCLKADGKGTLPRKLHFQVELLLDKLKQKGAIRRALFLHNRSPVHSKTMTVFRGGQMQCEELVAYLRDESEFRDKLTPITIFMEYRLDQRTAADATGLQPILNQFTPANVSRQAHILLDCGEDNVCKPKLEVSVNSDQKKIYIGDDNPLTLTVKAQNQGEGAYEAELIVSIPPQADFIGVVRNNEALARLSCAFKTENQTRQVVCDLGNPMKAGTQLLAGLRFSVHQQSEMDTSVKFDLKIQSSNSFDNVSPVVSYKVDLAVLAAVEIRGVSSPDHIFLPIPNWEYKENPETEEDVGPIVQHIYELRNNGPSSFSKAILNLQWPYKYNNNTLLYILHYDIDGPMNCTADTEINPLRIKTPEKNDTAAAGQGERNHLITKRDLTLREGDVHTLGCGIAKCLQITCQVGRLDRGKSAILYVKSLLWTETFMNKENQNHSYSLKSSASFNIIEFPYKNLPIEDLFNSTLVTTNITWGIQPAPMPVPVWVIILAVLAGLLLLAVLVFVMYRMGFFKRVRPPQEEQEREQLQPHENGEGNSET
Chain of αvβ3 integrin on MC3T3-E1 murine osteoblast-like cells (O54890 26-787, chain 2 of 2): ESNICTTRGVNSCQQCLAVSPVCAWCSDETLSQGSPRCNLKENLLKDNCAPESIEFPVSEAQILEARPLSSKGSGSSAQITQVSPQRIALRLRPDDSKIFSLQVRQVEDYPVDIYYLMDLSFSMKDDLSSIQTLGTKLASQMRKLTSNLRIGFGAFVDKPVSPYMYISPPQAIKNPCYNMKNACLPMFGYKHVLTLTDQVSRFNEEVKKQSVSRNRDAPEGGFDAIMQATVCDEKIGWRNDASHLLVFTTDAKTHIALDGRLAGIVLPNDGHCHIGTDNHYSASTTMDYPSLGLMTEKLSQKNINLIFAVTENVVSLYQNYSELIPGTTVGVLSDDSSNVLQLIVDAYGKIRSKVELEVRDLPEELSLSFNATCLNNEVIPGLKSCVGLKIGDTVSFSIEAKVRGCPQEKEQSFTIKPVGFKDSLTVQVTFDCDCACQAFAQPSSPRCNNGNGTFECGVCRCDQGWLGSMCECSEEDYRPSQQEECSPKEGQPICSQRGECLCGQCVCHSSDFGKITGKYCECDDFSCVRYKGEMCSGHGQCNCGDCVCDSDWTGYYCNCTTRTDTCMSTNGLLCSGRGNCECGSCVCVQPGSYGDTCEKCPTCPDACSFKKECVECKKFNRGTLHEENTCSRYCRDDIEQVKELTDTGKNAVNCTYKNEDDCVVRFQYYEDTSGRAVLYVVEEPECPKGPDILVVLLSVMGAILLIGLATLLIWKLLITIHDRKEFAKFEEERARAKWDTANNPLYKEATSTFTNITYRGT

Binder	ADH50 (ligand density required for half-maximal adhesion of MC3T3-E1 cells) [1] [fmol/cm^2]	binding result [2]	ADH50 (ligand density required for half-maximal adhesion of MC3T3-E1 cells) [3] [fmol/cm^2]	FAK tyrosine-397 phosphorylation, FNIII7-10 surface against RGD-tethered surface [3] [fold]	cell proliferation rate (BrdU incorporation), FNIII7-10 surface against RGD-tethered surface [3] [fold]
GRGDGGGGGGGGGGGGGPHSRN (Synthetic; tethered to SAMs) [RGD-PHSRN peptide (GRGDG13PHSRN)]	1950	no binding			
GRGDSPC [RGD peptide (GRGDSPC)]	2300				
B1			70	~3	2
